Assay results reported in paper PMC6591006, “Broad and Potent Neutralizing Antibodies Recognize the Silent Face of the HIV Envelope” (Immunity, 2019).
Where a chain is given by its changes, count along the chain named.

B1: Monoclonal anti-HIV-1 Env SF12 (IgG) (antibody, V domains shown)
VH: QVQLQESGPGLVKPSETLSVTCRVSGGSLDLYYWSWIRQPPGKGLQWIGFVYFDGSYGDYDPSLRSRVTISADMSKNQISLRLKSVTPADTAVYYCARLGPGGIFDRWTGHYGDKWLDPWGQGTLVTVSS
VL: QIDLTQSPRTLSLSAGERATLLCRASQSVSNVALAWYQHKPGQAPRLLLHEASTRATGIPDRFIGSGSGRDFTLTITSLEPEDFAVYYCQLSGRRLGQGTKVEIK
B2: Monoclonal anti-HIV-1 Env SF5 (IgG) (antibody, V domains shown)
VH: B1 VH with L31R, K43E, F50H, S71T, N77Y, S80I, K84R
VL: B1 VL with D3V, T54I, T57A, I64V, E80H, Q98P

Experiments:
[1] = target: T1, YU2 gp120 monomer (wild type) (HIV-1 group M subtype B isolate YU-2, UniProt P35961); test: ELISA; YU2 gp120/gp140 proteins coated on the plate at 2 μg/ml; IgG in a 1:3 dilution series from 4 or 10 μg/ml, 1 h at room temperature or 37°C, in 1% BSA in PBS; detected with anti-human IgG; conditions: both partners purified
T1 construct: also called monomeric YU2 gp120; YU2 gp120 WT; source: 293-6E, transiently transfected, purified (Ni-NTA)

[2] = target: T2, YU2 gp140 foldon trimer (wild type) (HIV-1 group M subtype B isolate YU-2, UniProt P35961, stabilised); test: as above; conditions: both partners purified
T2 construct: also called uncleaved YU2 gp140 foldon trimer; YU2 gp140 WT; source: 293-6E, transiently transfected, purified (Ni-NTA)

| Binder | binding result [1] | binding result [2] |
| --- | --- | --- |
| B1 | binds | binds |
| B2 | binds | binds |
